Measurements as given in patent US20200199533A1 (KING ABDULLAH UNIVERSITY OF SCIENCE AND TECHNOLOGY, published 2020).

Key:
[1] = molecular target: T1, PSGL-1, native glycoprotein from human HSPCs (KG1a, CD34^pos-BM) (human, UniProt Q14242 42-412, native glycosylation and tyrosine sulfation); experiment: SPR; PSGL-1 captured from KG1a lysate on KPL-1-mAb, E-Ig injected, 150 mM NaCl; apparent rate constant; mean ± SEM
T1 construct: mature; also called P-selectin glycoprotein ligand-1
T1 sequence (looked up): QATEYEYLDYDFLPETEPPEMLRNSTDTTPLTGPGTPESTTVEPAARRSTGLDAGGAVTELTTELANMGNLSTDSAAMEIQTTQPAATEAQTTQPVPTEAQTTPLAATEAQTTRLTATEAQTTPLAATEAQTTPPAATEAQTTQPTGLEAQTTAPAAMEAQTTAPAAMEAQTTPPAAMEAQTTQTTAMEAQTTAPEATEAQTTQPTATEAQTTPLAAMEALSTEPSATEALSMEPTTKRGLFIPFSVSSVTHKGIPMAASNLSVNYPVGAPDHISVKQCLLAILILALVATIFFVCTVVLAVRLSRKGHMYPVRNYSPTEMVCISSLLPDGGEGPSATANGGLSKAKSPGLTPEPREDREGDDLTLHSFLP

[2] = molecular target: T2, CD34, native glycoprotein from human HSPCs (KG1a, CD34^pos-BM, CD34^pos-UCB, CD34^pos-AML) (human, UniProt P28906 32-385, native glycosylation (about 120-130 kDa form); sialylated O-glycans and tyrosine sulfation are shown to matter for selectin binding); experiment: SPR; CD34 captured from KG1a lysate on 563-mAb, E-Ig injected (3.9-2000 nM), 150 mM NaCl; steady-state model; 1st experiment
T2 construct: mature; also called E-selL CD34
T2 sequence (looked up): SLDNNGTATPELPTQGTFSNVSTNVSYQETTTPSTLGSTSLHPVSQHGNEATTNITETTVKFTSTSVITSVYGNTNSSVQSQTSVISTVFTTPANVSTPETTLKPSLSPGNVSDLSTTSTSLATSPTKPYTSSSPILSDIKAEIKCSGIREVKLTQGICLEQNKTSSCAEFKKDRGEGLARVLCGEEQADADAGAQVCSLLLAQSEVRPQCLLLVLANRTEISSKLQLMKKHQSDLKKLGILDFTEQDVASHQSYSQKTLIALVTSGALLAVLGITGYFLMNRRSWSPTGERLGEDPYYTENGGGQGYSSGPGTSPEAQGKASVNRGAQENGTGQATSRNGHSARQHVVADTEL

[3] = molecular target: CD44 (HCELL), native glycoprotein from human HSPCs (KG1a, CD34^pos fraction) (human) (UniProt P16070); experiment: SPR, from the binding isotherm; CD44 captured from KG1a lysate
[4] = molecular target: CD44 (HCELL), native glycoprotein from human HSPCs (KG1a, CD34^pos fraction) (human) (UniProt P16070); experiment: SPR; CD44 captured from KG1a lysate on Hermes-3-mAb, E-Ig injected (3.9-2000 nM), 150 mM NaCl; steady-state model; 2nd experiment
[5] = molecular target: T1, PSGL-1, native glycoprotein from human …; experiment: SPR; PSGL-1 captured from KG1a lysate on KPL-1-mAb, E-Ig injected (3.9-2000 nM), 150 mM NaCl; steady-state model; mean ± SEM
[6] = molecular target: T3, CD43, native glycoprotein from KG1a cells (human, UniProt P16150 20-400, native glycosylation); experiment: SPR; CD43 captured from KG1a lysate on polyclonal CD43 Ab, E-Ig injected, 150 mM NaCl; apparent rate constant; 1st experiment
T3 construct: mature
T3 sequence (looked up): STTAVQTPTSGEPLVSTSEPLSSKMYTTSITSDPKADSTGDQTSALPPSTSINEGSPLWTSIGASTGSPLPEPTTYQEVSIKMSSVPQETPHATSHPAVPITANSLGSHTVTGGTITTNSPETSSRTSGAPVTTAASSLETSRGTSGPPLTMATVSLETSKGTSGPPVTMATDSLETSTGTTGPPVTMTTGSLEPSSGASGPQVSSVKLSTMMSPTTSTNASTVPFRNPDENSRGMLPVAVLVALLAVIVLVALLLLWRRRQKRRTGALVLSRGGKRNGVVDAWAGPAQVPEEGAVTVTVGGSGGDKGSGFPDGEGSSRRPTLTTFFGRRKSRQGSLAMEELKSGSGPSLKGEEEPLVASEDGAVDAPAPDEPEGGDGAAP

[7] = molecular target: T1, PSGL-1, native glycoprotein from human …; experiment: SPR; PSGL-1 captured from KG1a lysate on KPL-1-mAb, E-Ig injected (3.9-2000 nM), 150 mM NaCl; steady-state model; 1st experiment
[8] = molecular target: T2, CD34, native glycoprotein from human …; experiment: SPR; CD34 captured from KG1a lysate on 563-mAb, E-Ig injected, 150 mM NaCl; apparent rate constant; mean ± SEM
[9] = molecular target: T3, CD43, native glycoprotein from KG1a …; experiment: SPR; CD43 captured from KG1a lysate on polyclonal CD43 Ab, E-Ig injected (3.9-2000 nM), 150 mM NaCl; steady-state model; mean ± SEM
[10] = molecular target: T2, CD34, native glycoprotein from human …; experiment: SPR; CD34 captured from CD34^pos-BM lysate on 563 mAb; apparent rate constant after the last E-Ig injection
[11] = molecular target: T3, CD43, native glycoprotein from KG1a …; experiment: SPR; CD43 captured from KG1a lysate on polyclonal CD43 Ab, E-Ig injected (3.9-2000 nM), 150 mM NaCl; steady-state model; 1st experiment

CD44 (HCELL), native glycoprotein from human HSPCs (KG1a, CD34^pos fraction) (human), sequence (P16070 21-742): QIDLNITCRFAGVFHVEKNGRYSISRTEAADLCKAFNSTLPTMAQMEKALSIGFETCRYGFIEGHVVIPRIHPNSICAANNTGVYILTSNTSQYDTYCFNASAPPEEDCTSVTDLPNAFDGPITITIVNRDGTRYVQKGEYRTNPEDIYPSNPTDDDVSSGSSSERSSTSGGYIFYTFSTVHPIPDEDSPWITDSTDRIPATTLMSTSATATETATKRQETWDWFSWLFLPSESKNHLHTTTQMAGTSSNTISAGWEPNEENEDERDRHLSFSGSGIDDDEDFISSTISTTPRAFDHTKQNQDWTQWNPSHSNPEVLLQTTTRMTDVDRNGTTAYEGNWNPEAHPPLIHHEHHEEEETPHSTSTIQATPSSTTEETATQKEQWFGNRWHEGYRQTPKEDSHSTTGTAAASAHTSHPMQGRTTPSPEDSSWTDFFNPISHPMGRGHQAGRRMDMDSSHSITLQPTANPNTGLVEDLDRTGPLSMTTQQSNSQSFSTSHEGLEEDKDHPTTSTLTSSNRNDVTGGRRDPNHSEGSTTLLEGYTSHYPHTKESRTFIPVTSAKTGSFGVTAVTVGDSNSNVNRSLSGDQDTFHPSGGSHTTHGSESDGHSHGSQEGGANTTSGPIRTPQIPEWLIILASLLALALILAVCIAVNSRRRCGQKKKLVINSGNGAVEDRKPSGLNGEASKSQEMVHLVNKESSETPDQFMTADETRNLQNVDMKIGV

B1: recombinant E-selectin human immunoglobulin chimeric protein (Fc fusion)
chain: WSYNTSTEAMTYDEASAYCQQRYTHLVAIQNKEEIEYLNSILSYSPSYYWIGIRKVNNVWVWVGTQKPLTEEAKNWAPGEPNNRQKDEDCVEIYIKREKDVGMWNDERCSKKKLALCYTAACTNTSCSGHGECVETINNYTCKCDPGFSGLKCEQIVNCTALESPEHGSLVCSHPLGNFSYNSSCSISCDRGYLPSSMETMQCMSSGEWSAPIPACNVVECDAVTNPANGFVECFQNPGSFPWNTTCTFDCEEGFELMGAQSLQCTSSGNWDNEKPTCKAVTCRAVRQPQNGSVRCSHSPAGEFTFKSSCNFTCEEGFMLQGPAQVECTTQGQWTQQIPVCEAFQCTALSNPERGYMNCLPSASGSFRYGSSCEFSCEQGFVLKGSKRLQCGPTGEWDNEKPTCEAVRCDAVHQPPKGLVRCAHSPIGEFTYKSSCAFSCEEGFELHGSTQLECTSQGQWTEEVPSCQVVKCSSLAVPGKINMSCSGEPVFGTVCKFACPEGWTLNGSAARTCGATGHWSGLLPTCEAPTESNIP
- koff [1]: 0.00019 s⁻¹
- kon [1]: 793 M⁻¹ s⁻¹
- Kd [2]: 145 nM
- % E-Ig binding assuming 1:1 stoichiometry [3]: 23%
- Kd [4]: 252 nM
- Kd [5]: 259 nM
- koff [6]: 0.00048 s⁻¹
- kon [6]: 944 M⁻¹ s⁻¹
- Kd [7]: 342 nM
- koff [8]: 0.00026 s⁻¹
- kon [8]: 1230 M⁻¹ s⁻¹
- Kd [9]: 442 nM
- koff [10]: 0.00019 s⁻¹
- Kd [11]: 509 nM
